Measurements as given in PMC5992219, “HuR regulates telomerase activity through TERC methylation”.

Assays:
[1] = tested on: HuR (HeLa lysate) (human (HeLa)); assay: pull-down; settings: biotin-UTP, ITC: 10 mM Tris pH 8.0, 100 mM NaCl, 25 C, UV-crosslinking EMSA: 50 mM Tris pH 7.0, 150 mM NaCl, 0.25 mg/ml tRNA, 0.025 mg/ml BSA, pull-down: 1 ug RNA …
[2] = target: HuR (ITC, SUMO tag removed) (UniProt Q15717 1-326); assay: ITC; ITC: 10 mM Tris pH 8.0, 100 mM NaCl, 25 C; UV-crosslinking EMSA: 50 mM Tris pH 7.0, 150 mM NaCl, 0.25 mg/ml tRNA, 0.025 mg/ml BSA, 25 C; pull-down: 1 ug RNA, 100 ug cytoplasmic extract, room temperature, 30 min; settings: protein: recombinant; tags: N-terminal 6xHis-SUMO removed by Ulp1
Sequence of HuR (ITC, SUMO tag removed) (Q15717 whole entry): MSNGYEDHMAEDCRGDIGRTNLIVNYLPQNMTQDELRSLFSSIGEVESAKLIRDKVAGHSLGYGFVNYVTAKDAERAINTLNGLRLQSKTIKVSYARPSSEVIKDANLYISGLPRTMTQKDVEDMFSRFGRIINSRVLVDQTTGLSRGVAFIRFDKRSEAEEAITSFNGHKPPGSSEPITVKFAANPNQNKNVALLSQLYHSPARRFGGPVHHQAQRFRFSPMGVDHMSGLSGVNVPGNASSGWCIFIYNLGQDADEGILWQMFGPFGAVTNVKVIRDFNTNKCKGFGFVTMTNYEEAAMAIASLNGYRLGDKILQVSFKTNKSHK

TERC U40A was tested, and the binding signal (% reduction vs WT) [1] was 70.7.

In the case of TERC U100A, the binding signal (% reduction vs WT) [1] is reported as 70.4.

CUAGACUAGGACUC (ssRNA) [ITC negative control RNA]: no binding [2].

AUUUUUUGUCU (ssRNA) [TERC 37-47 oligo (UUUUUU motif)] was tested, and the Kd [2] was ~24.3 nM.

GUUUUUCUCG (ssRNA) [TERC 98-107 oligo (GUUUUUC motif)] was tested, and the Kd [2] was ~70.4 nM.
